In patent EP1175513B1, “MinK-RELATED GENES, FORMATION OF POTASSIUM [sequence] AND ASSOCIATION WITH CARDIAC [sequence]” (The University of Utah Research Foundation, priority 1999, dated 2000):

B1: rMiRP1 (other)
chain: MTTLANLTQTLEDAFKKVFITYMDSWRRNTTAEQQALQARVDAENFYYVILYLMVMIGMFAFIVVAILVSTVKSKRREHSQDPYHQYIVEDWQQKYRSQILHLEDSKATIHENLGATGFTVSP

Assays:
[1] = biological target: channels formed with wild type hMiRP1 (Homo sapiens, UniProt Q12809); assay: Clarithromycin blockade of channels expressed in CHO cells; conditions: effect of clarithromycin (Fig. 9C)
[2] = biological target: T1, channels formed with Q9E-hMiRP1 (Homo sapiens, UniProt Q12809); assay: in vitro; conditions: cho cells
[3] = biological target: T1, channels formed with Q9E-hMiRP1; assay: Clarithromycin blockade of channels expressed in CHO cells; conditions: effect of clarithromycin (Fig. 9C)
[4] = human, in vivo, po
Method: To test the hypothesis that MiRP1 mutants cause cardiac arrhythmia, we screened a panel of 20 patients with drug-induced arrhythmia and 230 patients with inherited or sporadic arrhythmias and no mutations in their KVLQT1, HERG, SCN5A or KCNE1 genes.
Q9E-hMiRP1. […] The patient is a person with a history of high blood pressure, non-insulin dependent diabetes and stroke. […] The patient was admitted to the hospital with pneumonia and treated with 7 doses of intravenous erythromycin, 500 mg every 6 hours and then switched to oral clarithromycin, 500 mg every 12 hours.

[5] = biological target: HERG (human, UniProt Q12809 1-1159); assay: cell-based or functional assay

T1 sequence (Q12809 whole entry): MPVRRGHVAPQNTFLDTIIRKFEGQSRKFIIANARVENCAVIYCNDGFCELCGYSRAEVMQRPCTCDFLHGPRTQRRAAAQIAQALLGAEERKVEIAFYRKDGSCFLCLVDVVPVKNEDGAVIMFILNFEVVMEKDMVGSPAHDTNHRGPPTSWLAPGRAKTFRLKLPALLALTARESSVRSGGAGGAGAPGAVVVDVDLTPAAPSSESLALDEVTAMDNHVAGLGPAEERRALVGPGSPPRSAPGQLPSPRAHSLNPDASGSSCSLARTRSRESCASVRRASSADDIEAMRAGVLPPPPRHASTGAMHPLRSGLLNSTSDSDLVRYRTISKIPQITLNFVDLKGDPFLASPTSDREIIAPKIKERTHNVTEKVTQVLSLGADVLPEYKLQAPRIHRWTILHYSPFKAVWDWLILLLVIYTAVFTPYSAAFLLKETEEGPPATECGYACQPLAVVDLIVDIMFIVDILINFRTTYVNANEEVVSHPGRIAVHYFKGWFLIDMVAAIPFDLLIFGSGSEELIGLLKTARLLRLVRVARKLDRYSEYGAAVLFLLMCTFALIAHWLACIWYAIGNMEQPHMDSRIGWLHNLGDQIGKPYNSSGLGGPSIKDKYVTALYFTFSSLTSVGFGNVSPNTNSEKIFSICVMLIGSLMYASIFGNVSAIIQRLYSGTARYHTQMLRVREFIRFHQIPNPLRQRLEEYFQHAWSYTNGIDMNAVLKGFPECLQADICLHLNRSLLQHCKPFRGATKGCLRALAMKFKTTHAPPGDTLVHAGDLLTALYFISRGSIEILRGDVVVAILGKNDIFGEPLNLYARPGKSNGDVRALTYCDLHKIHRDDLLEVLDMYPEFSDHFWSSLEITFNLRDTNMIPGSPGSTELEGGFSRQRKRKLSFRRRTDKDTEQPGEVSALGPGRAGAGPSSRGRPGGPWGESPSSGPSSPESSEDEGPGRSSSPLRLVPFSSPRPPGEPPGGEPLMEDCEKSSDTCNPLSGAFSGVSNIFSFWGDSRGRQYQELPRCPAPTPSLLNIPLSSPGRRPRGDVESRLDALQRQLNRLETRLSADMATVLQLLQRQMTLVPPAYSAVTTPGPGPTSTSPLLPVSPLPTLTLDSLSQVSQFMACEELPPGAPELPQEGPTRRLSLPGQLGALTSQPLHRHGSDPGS
T1 sequence (Q9Y6J6 with tags, fused parts or gaps Q9E partner): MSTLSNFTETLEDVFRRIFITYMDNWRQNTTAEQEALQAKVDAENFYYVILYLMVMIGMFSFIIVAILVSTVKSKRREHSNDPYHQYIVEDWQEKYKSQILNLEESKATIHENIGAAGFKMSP
Sequence of channels formed with wild type hMiRP1 (Q12809 whole entry): as the sequence (Q12809 whole entry) above
Sequence of channels formed with wild type hMiRP1 (Q9Y6J6 whole entry partner): as the sequence (Q9Y6J6 with tags, fused parts or gaps Q9E partner) above, with E9Q counted along it

Molecule | activation V1/2 mV [5] [mV] | deactivation ratio If/(Is + If) [5] | deactivation τf s [5] [ms] | deactivation τs, s [5] | activation V1/2 in 1 mM Ca^2+, 1 mM KCl solution [5] [mV] | other results
CC[C@H]1OC(=O)[C@H](C)[C@@H](O[C@H]2C[C@@](C)(OC)[C@@H](O)[C@H](C)O2)[C@H](C)[C@@H](O[C@@H]2O[C@H](C)C[C@H](N(C)C)[C@H]2O)[C@](C)(OC)C[C@@H](C)C(=O)[C@H](C)[C@@H](O)[C@]1(C)O [clarithromycin] | – | – | – | – | – | slope factor [1]: no change; selectivity ratio [2]: 3; slope factor [3]: no change; arrhythmia developed [4]: TdP and VF
M54T-hMiRP1 (from UniProt Q9Y6J6 1-123) | -21 | 0.81 | 37 | 266 | – | faster deactivation against wild type hMiRP1 channels [5]: 3 fold
Q9E-hMiRP1 (from UniProt Q9Y6J6 1-123) | -12 | 0.8 | 100 | 750 | -12 | –
T8A-hMiRP1 (from UniProt Q9Y6J6 1-123) | -29 | 0.83 | 100 | 590 | – | –
wild type human MiRP1 (from UniProt Q9Y6J6 1-123) | -21 | 0.82 | 80 | 483 | -20 | faster deactivation against HERG alone (τf at -120 mV) [5]: 3 fold; unitary conductance (oocytes) [5]: 8 pS
B1 | – | – | – | – | – | acceleration of single-channel deactivation [5]: 2.3 fold; increase in deactivation rate against HERG alone [5]: 7 fold; increase in deactivation rate, plasma-like solution [5]: ~2 fold
